US20260201033A1 (LTZ THERAPEUTICS, published 2026)

Columns and labels:
[1] = molecular target: T1, CD79b on Ramos cells and on endogenous B cells of human PBMCs (human, UniProt P40259 29-229); assay: cell-based or functional assay
T1 sequence (looked up): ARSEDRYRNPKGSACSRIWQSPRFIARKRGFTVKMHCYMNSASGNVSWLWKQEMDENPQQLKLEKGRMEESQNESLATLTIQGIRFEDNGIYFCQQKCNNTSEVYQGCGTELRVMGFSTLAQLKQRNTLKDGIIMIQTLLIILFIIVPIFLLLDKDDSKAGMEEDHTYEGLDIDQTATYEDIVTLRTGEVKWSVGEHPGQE

[2] = molecular target: T1, CD79b on Ramos cells and on endogenous …; assay: cell-based or functional assay; remark: listed apart in the source
[3] = molecular target: T1, CD79b on Ramos cells and on endogenous …; assay: cell-based or functional assay; remark: listed apart in the source
[4] = molecular target: T1, CD79b on Ramos cells and on endogenous …; assay: cell-based or functional assay; remark: listed apart in the source
[5] = molecular target: T1, CD79b on Ramos cells and on endogenous …; assay: cell-based or functional assay; remark: listed apart in the source
[6] = molecular target: T1, CD79b on Ramos cells and on endogenous …; assay: flow cytometry on Ramos cells (CD79b+), anti-human IgG PE, MFI (PE)
[7] = molecular target: T1, CD79b on Ramos cells and on endogenous …; assay: cell-based or functional assay; remark: listed apart in the source
[8] = molecular target: T2, Human C-type lectin domain family 5 member A (CLEC5A), endogenous on human monocytes and M0 macrophages (human, UniProt Q9NY25 1-188); assay: flow cytometry on human M0 macrophages, anti-human IgG PE
T2 construct: Endogenous CLEC5A on primary human monocytes and monocyte-derived M0 macrophages; also called MDL-1; M0 macrophages (CLEC5A+) cells
T2 sequence: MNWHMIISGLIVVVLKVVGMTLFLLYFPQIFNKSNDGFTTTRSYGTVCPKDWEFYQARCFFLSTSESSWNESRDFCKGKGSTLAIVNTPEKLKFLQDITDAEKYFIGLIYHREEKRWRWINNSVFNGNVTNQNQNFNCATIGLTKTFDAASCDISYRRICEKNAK

HER2 on SK-BR-3 cells [9] = molecular target: T3, HER2 on SK-BR-3 cells (UniProt P04626 23-1255, limits assumed); assay: cell-based or functional assay
HER2 on SK-BR-3 cells [10] = molecular target: T3, HER2 on SK-BR-3 cells; assay: cell-based or functional assay; remark: listed apart in the source
[11] = molecular target: T4, human EGFR (ACROBiosystems, Cat #: EGR-H5222) (human, UniProt P00533 25-645); assay: ELISA, plate coated with human EGFR
T4 construct: Bought protein; also called recombinant human EGFR protein

EpCAM on DLD-1 cells [12] = molecular target: T5, EpCAM on DLD-1 cells (human, UniProt P16422 24-314); assay: cell-based or functional assay
T5 sequence (looked up): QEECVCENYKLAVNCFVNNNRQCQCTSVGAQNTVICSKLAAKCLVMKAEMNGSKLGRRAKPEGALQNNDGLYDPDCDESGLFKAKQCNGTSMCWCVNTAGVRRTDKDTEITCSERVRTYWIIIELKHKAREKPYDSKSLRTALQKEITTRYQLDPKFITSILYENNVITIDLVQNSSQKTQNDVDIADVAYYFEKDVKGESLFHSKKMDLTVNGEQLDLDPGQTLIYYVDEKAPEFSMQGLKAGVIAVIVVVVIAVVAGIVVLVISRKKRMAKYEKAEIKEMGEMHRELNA

EpCAM on DLD-1 cells [13] = molecular target: T5, EpCAM on DLD-1 cells; assay: flow cytometry on DLD-1 cells (EPCAM+), anti-human IgG PE

B1: CD79b/5C7 (2+2 B) Fc-optimized (bispecific antibody, human IgG1, kappa)
heavy: EQQLVETGGGLIQPGGSLRLSCAASGFTINIDYWISWVRQAPGKGLEWIGIIDPGDGTTYFAIWVSGRFTISFDNSKNTVYLQMNSLRAEDTAVYFCVREFSASAYQYDLWGPGTLVTVSSASTKGPSVFPLAPSSKSTSGGTAALGCLVKDYFPEPVTVSWNSGALTSGVHTFPAVLQSSGLYSLSSVVTVPSSSLGTQTYICNVNHKPSNTKVDKKVEPKSCDKTHTCPPCPAPELLAGPSVFLFPPKPKDTLMISRTPEVTCVVVDVSHEDPEVKFNWYVDGVEVHNAKTKPREEQYNSTYRVVSVLTVLHQDWLNGKEYKCKVSNKALPLPEEKTISKAKGQPREPQVYTLPPSRDELTKNQVSLTCLVKGFYPSDIAVEWESNGQPENNYKTTPPVLDSDGSFFLYSKLTVDKSRWQQGNVFSCSVMHEALHNHYTQKSLSLSPGGGGGSGGGGSGGGGSDIQMTQSPSSLSASVGDRVTITCQASESVDRNNRLAWFQQKPGKPPKLLIYTTSTLASGVPSRFSGSGSGTDFTLTISSLQPEDVATYYCAGYRGAHTDGDAFGCGTKVEIKGGGGSGGGGSGGGGSGGGGSEQQLVESGGGLVKPGGSLRLSCAASGFSFSRSSYMCWVRQAPGKCLEWIGCLSVGDGHTYYASWAKGRFTISKDSAKNSVYLQMNSLRAEDTAVYFCARAPSYSGDGGHGYDLWGPGTLVTVSS
light: ELVMTQSPATLSVSPGERATLSCRASEDIENYLAWYQQKPGQPPRLLIYRASTLSSGVPARFSGSGSGTEFTLTISSLQSEDFAVYYCQQGYRNSNVDNPFGGGTKVEIKRTVAAPSVFIFPPSDEQLKSGTASVVCLLNNFYPREAKVQWKVDNALQSGNSQESVTEQDSKDSTYSLSSTLTLSKADYEKHKVYACEVTHQGLSSPVTKSFNRGEC
B1 was tested, and the “IC50 (nM), Ramos cell killing by M1 macrophages, Donor 431” value [1] was 0.002 nM, the “IC50 (nM), Ramos cell killing by M0 macrophages, Donor 022” value [2] was 0.012 nM and the “IC50 (nM), Ramos cell killing by M0 macrophages, Donor 159” value [2] was 0.001 nM. For the same binder, the “IC50 (nM), Ramos cell killing by M0 macrophages, Donor 161” value [2] was 0.001 nM, the “IC50 (nM), Ramos cell killing by M0 macrophages, Donor 431” value [2] was 0.002 nM and the “IC50 (nM), Ramos cell killing by PBMCs (test 3), Donor 281” value [3] was 0.28 nM. The “IC50 (nM), Ramos cell killing by PBMCs (test 3), Donor 367” value [3] was 0.0295 nM, the “IC50 (nM), Ramos cell killing by PBMCs (test 2), Donor 234” value [4] was 0.0298 nM and the “IC50 (nM), Ramos cell killing by PBMCs (test 2), Donor 431” value [4] was 0.0168 nM. The “IC50 (nM), Ramos cell killing by M2 macrophages, Donor 022” value [5] was 0.006 nM, the “IC50 (nM), Ramos cell killing by M2 macrophages, Donor 431” value [5] was 0.001 nM and the “EC50 (read off the curve)” value [6] was ~1 nM. The “IC50 (nM), killing of endogenous B cells by PBMCs, Donor 234” value [7] was 0.0156 nM.

B2: HER2/3A7 (1+1 A) Fc-silenced (bispecific antibody, human IgG1, kappa, L234A L235A)
heavy 1: not shown
heavy 2: not shown
light 1: not shown
light 2: AVVMTQTPASVEAAVGGTVTINCQASQRINNYLSWFQQKPGQPPKLLIYGAATLASGVPSRFKGSGSGTEYTLTISDLEPADAATYYCQCTYGIPSSNYGFGGGTEVVVKSSASTKGPSVFPLAPSSKSTSGGTAALGCLVKDYFPEPVTVSWNSGALTSGVHTFPAVLQSSGLYSLSSVVTVPSSSLGTQTYICNVNHKPSNTKVDKKVEPKSC
notes: also called HER2/3A7 (1+1 A) Fc-LALAPG
With B2 the EC50 [8] was 0.611 nM and the “IC50 (nM), SK-BR-3 cell killing by M0 macrophages (E:T 5:1)” value (HER2 on SK-BR-3 cells [9]) was 0.114 nM.

B3: HER2/5C7 (1+1 A) Fc-silenced (bispecific antibody, human IgG1, kappa, L234A L235A)
heavy 1: not shown
heavy 2: not shown
light 1: not shown
light 2: AIVMTQTPSSKSVPVGDTVTINCQASESVDRNNRLAWFQQKPGQPPKLLIYTTSTLASGVPSRFKGSGSGTHFTLTISDVVPDDAATYYCAGYRGAHTDGDAFGGGTEVVVKSSASTKGPSVFPLAPSSKSTSGGTAALGCLVKDYFPEPVTVSWNSGALTSGVHTFPAVLQSSGLYSLSSVVTVPSSSLGTQTYICNVNHKPSNTKVDKKVEPKSC
notes: also called HER2/5C7 (1+1 A) Fc-LALAPG
For B3, the EC50 [8] was 1.49 nM, the “IC50 (nM), SK-BR-3 cell killing by M0 macrophages in the presence of hIgG1” value (HER2 on SK-BR-3 cells [10]) was 0.00632 nM and the “IC50 (nM), SK-BR-3 cell killing by M0 macrophages in the presence of media” value (HER2 on SK-BR-3 cells [10]) was 0.0481 nM. For the same binder, the “IC50 (nM), SK-BR-3 cell killing by M0 macrophages in the presence of plasma” value (HER2 on SK-BR-3 cells [10]) was 0.433 nM and the “IC50 (nM), SK-BR-3 cell killing by M0 macrophages (E:T 5:1)” value (HER2 on SK-BR-3 cells [9]) was 0.148 nM.

B4: Necitumumab (antibody, V domains shown)
VH: QVQLQESGPGLVKPSQTLSLTCTVSGGSISSGDYYWSWIRQPPGKGLEWIGYIYYSGSTDYNPSLKSRVTMSVDTSKNQFSLKVNSVTAADTAVYYCARVSIFGVGTFDYWGQGTLVTVSS
VL: EIVMTQSPATLSLSPGERATLSCRASQSVSSYLAWYQQKPGQAPRLLIYDASNRATGIPARFSGSGSGTDFTLTISSLEPEDFAVYYCHQYGSTPLTFGGGTKAEIK
B4 was tested, and the EC50 [11] was 0.022 µg/mL.

B5: CD79b/5C7 (2+2 A) Fc-optimized (bispecific antibody, human IgG1, kappa)
heavy: EQQLVETGGGLIQPGGSLRLSCAASGFTINIDYWISWVRQAPGKGLEWIGIIDPGDGTTYFAIWVSGRFTISFDNSKNTVYLQMNSLRAEDTAVYFCVREFSASAYQYDLWGPGTLVTVSSASTKGPSVFPLAPSSKSTSGGTAALGCLVKDYFPEPVTVSWNSGALTSGVHTFPAVLQSSGLYSLSSVVTVPSSSLGTQTYICNVNHKPSNTKVDKKVEPKSCDKTHTCPPCPAPELLAGPSVFLFPPKPKDTLMISRTPEVTCVVVDVSHEDPEVKFNWYVDGVEVHNAKTKPREEQYNSTYRVVSVLTVLHQDWLNGKEYKCKVSNKALPLPEEKTISKAKGQPREPQVYTLPPSRDELTKNQVSLTCLVKGFYPSDIAVEWESNGQPENNYKTTPPVLDSDGSFFLYSKLTVDKSRWQQGNVFSCSVMHEALHNHYTQKSLSLSPGK
light: ELVMTQSPATLSVSPGERATLSCRASEDIENYLAWYQQKPGQPPRLLIYRASTLSSGVPARFSGSGSGTEFTLTISSLQSEDFAVYYCQQGYRNSNVDNPFGGGTKVEIKRTVAAPSVFIFPPSDEQLKSGTASVVCLLNNFYPREAKVQWKVDNALQSGNSQESVTEQDSKDSTYSLSSTLTLSKADYEKHKVYACEVTHQGLSSPVTKSFNRGECGGGGSGGGGSGGGGSDIQMTQSPSSLSASVGDRVTITCQASESVDRNNRLAWFQQKPGKPPKLLIYTTSTLASGVPSRFSGSGSGTDFTLTISSLQPEDVATYYCAGYRGAHTDGDAFGCGTKVEIKGGGGSGGGGSGGGGSGGGGSEQQLVESGGGLVKPGGSLRLSCAASGFSFSRSSYMCWVRQAPGKCLEWIGCLSVGDGHTYYASWAKGRFTISKDSAKNSVYLQMNSLRAEDTAVYFCARAPSYSGDGGHGYDLWGPGTLVTVSS
B5 was tested, and the “IC50 (nM), Ramos cell killing by M0 macrophages, Donor 100” value [2] was 0.002 nM, the “IC50 (nM), Ramos cell killing by M0 macrophages, Donor 159” value [2] was 0.001 nM and the “IC50 (nM), Ramos cell killing by M0 macrophages, Donor 161” value [2] was 0.0013 nM. The “IC50 (nM), Ramos cell killing by M0 macrophages, Donor 233” value [2] was 0.002 nM, the “IC50 (nM), Ramos cell killing by PBMCs (test 2), Donor 234” value [4] was 0.0675 nM and the “IC50 (nM), Ramos cell killing by M2 macrophages, Donor 100” value [5] was 0.001 nM. For the same binder, the “IC50 (nM), Ramos cell killing by M2 macrophages, Donor 233” value [5] was 0.003 nM, the “EC50 (read off the curve)” value [6] was ~0.9 nM and the “IC50 (nM), killing of endogenous B cells by PBMCs, Donor 234” value [7] was 0.0154 nM.

B6: anti-EpCAM antibody (Solitomab EpCAM binding part IgG form) (antibody, V domains shown)
VH: QVQLQQSGAELVRPGTSVKVSCKASGYAFTNYLIEWVKQRPGQGLEWIGVINPGSGGTNYNEKFKGKATLTADKSSSTAYMQLSSLTSDDSAVYFCARDGPWFAYWGQGTLVTVSA
VL: NIVMTQSPKSMSMSVGERVTLTCKASENVVTYVSWYQQKPEQSPKLLIYGASNRYTGVPDRFTGSGSATDFTLTISSVQAEDLADYHCGQGYSYPYTFGGGTKLEIK
notes: IgG form
B6 was tested, and the “IC50 (nM), DLD-1 cell killing by M0 macrophages” value (EpCAM on DLD-1 cells [12]) was 0.0812 nM and the EC50 (EpCAM on DLD-1 cells [13]) was 0.67 nM.
